Our source for the self-cleavage values is the RNAGym collection of RNA variant scans (doi:10.7554/elife.90254).

B1: LINE1-full (parent)
chain: UACGUAGGUGGUUUUCCCCUGAUAGUGCUAAGGGGGCCUGGAAGUUUGGACUGGGCAGAGCUCAACACAGCGUGGCAAAGUGGCUGUGGCUAGACUGCCUCUCUGGAUUCCUCGUCACUCAGCAGGGCAUCUCUGAGAGAAAUGCC

The variants in this data set derive from B1. In words: self-cleavage, relative activity (ratio to wild type); higher = more cleavage; in vitro, sequencing; the parent is a self-cleaving ribozyme.
In the case of U108G U112C, the self-cleavage amounted to 2.58.
C111A: the self-cleavage was determined as 1.25.
The value for C111U was 1.38; that for U108C U109C was 1.51; that for U109C A124G was 0.78.
The value for U109C C133U was 1.37; that for U108C U115C was 1.86.
The value for A107U G127A was 0.93.
For the variant C110U A136C, the self-cleavage was determined as 2.76.
Take U108C A141G: the self-cleavage amounted to 1.65.
The value for U108A A117G was 1.97; that for C110U U112A was 1.4.
For the variant C111U A141G, the self-cleavage amounted to 0.45.
Turning to U109C U134A, the self-cleavage worked out at 0.22.
Then U112C, with 1.36; and U112A, with 1.43.
For the variant U112A A117G, the self-cleavage stood at 1.82.
Then A107U A136G, with 1.92.
The value for C110U A141U was 0.84; that for U112A U119C was 2.45; that for U112A U119A was 0.
Take U109C G114U: the self-cleavage was 1.33.
Then C111U U130C, with 1.75; and U109A C131A, with 1.59.
For the variant C110A A140G, the self-cleavage came out at 1.44.
As to A107U A129G, the self-cleavage is 2.12.
Then A107U A129U, with 1.86; and U108C C131U, with 2.2.
The value for U108G A121U was 1.86; that for C111A A117G was 1.69.
Regarding U112A A141G, the self-cleavage worked out at 1.43.
The value for U109A A121G was 1.82.
Then C111U U115C, with 1.55.
Then U109C A136U, with 1.45.
Regarding U109C A142C, the self-cleavage worked out at 1.45.
As to U109C A142U, the self-cleavage amounted to 1.49.
Take U109C A142G: the self-cleavage worked out at 0.77.
As for U108C U130G, the self-cleavage amounted to 1.02.
Then U108C U130C, with 1.66; and U109C C116U, with 1.5.
Take U108A A142G: the self-cleavage amounted to 1.55.
For the variant C110A U119C, the self-cleavage came to 1.51.
With C110G A129G, the self-cleavage worked out at 1.36.
As to C111A A141G, the self-cleavage turned out to be 1.03.
C111A A141U: the self-cleavage worked out at 1.14.
Then U108G U115C, with 1.58; and U109C U115C, with 1.22.
Consider U109C U115A, for which the self-cleavage was 0.82.
Then U112A A138U, with 2.19.
In the case of U112A A138G, the self-cleavage was 1.57.
The value for U108C A140G was 1.74.
The value for U112C A117C was 1.38; that for C110U A124G was 0.82.
Then U108C C145G, with 2.49.
In the case of U108C C145A, the self-cleavage amounted to 1.47.
On to U108C A138G, for which the self-cleavage worked out at 1.8.
Take U109A A117G: the self-cleavage amounted to 1.42.
With U109A A117U, the self-cleavage is 1.51.
With U109C C123U, the self-cleavage is 1.22.
Regarding U112A U143C, the self-cleavage is 0.83.
Take A107U U119C: the self-cleavage stood at 2.16.
In the case of U108A A138G, the self-cleavage was 1.79.
Then U108G U130A, with 0.77.
Then U108C A121U, with 2.15; and U108C A121G, with 1.68; and U109A G126A, with 1.34.
The value for U109C U132A was 1.14; that for U109C U132C was 1.03.
In the case of U108C C111A, the self-cleavage stood at 1.76.
Then U109C C113A, with 0.99; and U109C C113U, with 1.28.
Turning to U108A U130A, the self-cleavage was found to be 0.38.
As for U112A U134C, the self-cleavage amounted to 1.56.
Then U112A U134G, with 1.73.
For U112A U134A, the self-cleavage is 1.09.
The value for A107U A141G was 1.52.
U109C G126A: the self-cleavage was determined as 1.83.
Then U108C C113A, with 1.45; and U108C U119C, with 2.
Then U112C A136G, with 1.51.
Consider U112C A136U, for which the self-cleavage is 1.84.
Then U109C A121G, with 1.58; and U109C A121C, with 0.99.
For the variant U112A U115C, the self-cleavage amounted to 1.3.
As to U108A U143C, the self-cleavage came out at 1.32.
The value for U109A U119A was 1.36; that for U108C A136G was 1.83.
Then U109A C123U, with 1.34; and C110A G139C, with 1.08.
The value for C110A G139A was 1.17.
Regarding U108C C146U, the self-cleavage came out at 0.63.
Then A107U U109A, with 1.98.
The value for A107U U109C was 1.58; that for A107U C146U was 1.21; that for C111U A121U was 1.28.
U112C A138U: the self-cleavage was found to be 1.23.
Then A107U U134G, with 1.9.
Then U109A A124U, with 1.61.
The value for U108C G127A was 1.64; that for U108G G122C was 0; that for U109G A124G was 1.04.
For A107U A138G, the self-cleavage came out at 1.71.
Regarding U109G A121G, the self-cleavage amounted to 0.
Turning to U108C C110A, the self-cleavage worked out at 1.49.
The value for C111U G137A was 1.73; that for U109G U119C was 0.49.
The value for U109A U143C was 1.8; that for U109A U143A was 1.75.
Turning to U108C G135A, the self-cleavage amounted to 1.6.
Then C110A, with 1.35; and C110U, with 1.51; and C110G, with 1.04.
The value for U109C U130A was 1.24.
The value for U109C U130C was 1.49.
In the case of U108C A117C, the self-cleavage worked out at 2.24.
On to U108C A117G, for which the self-cleavage was found to be 1.62.
Then U112A U130C, with 1.6; and C111A U130A, with 1.16.
The value for U108C A124C was 1.57.
Then U112A A129U, with 1.8; and U108C U143C, with 1.75; and U108C U143G, with 1.23.
For the variant U108C G126U, the self-cleavage was 2.03.
The value for C110A U112C was 1.56; that for U109A A140U was 1.22.
The value for U108A U115C was 1.52.
For U109C U143A, the self-cleavage is 1.18.
Then U109C U143G, with 0.87; and U109C C111U, with 1.31.
Then C110U G127A, with 1.35; and U112A U132A, with 1.69.
On to A107U U130C, for which the self-cleavage turned out to be 2.08.
Then U109G C145A, with 0.34; and U108A A124G, with 1.55; and U108A U132G, with 2.7.
Regarding C110U U119C, the self-cleavage came to 1.39.
For U109G G127A, the self-cleavage was 1.53.
For U109A A142G, the self-cleavage worked out at 1.39.
As to U109C U119A, the self-cleavage was 0.7.
As for U109C U119C, the self-cleavage turned out to be 1.61.
In the case of U108A A129G, the self-cleavage came to 0.99.
The value for C110U A140G was 1.41; that for C110U U132C was 1.45; that for U108C C123U was 2.22.
The value for U109C A138G was 1.69.
For C111U A136G, the self-cleavage was found to be 1.26.
In the case of U109G C128U, the self-cleavage is 1.17.
For A107U A142G, the self-cleavage worked out at 2.36.
The value for U108C U134G was 2.43.
As to C110U G126A, the self-cleavage was determined as 1.34.
The value for U108A A136G was 0.53; that for U108A A136U was 1.24; that for U109A A141G was 1.76.
With U112A A121C, the self-cleavage turned out to be 1.92.
The value for U112A A121G was 1.82; that for U112C A124G was 0.64; that for U112C A124C was 0.77.
With U109A U130C, the self-cleavage was determined as 1.54.
With U112A A136G, the self-cleavage was determined as 1.71.
Then U112A A140U, with 1.79; and A107U U115C, with 1.55.
On to U112C A129U, for which the self-cleavage worked out at 1.67.
The value for U108C A142G was 1.94; that for C110A A138G was 0.95; that for U108C C120A was 1.45.
The value for A107U C113U was 0.69; that for A107U U112A was 2.03.
